How the values were obtained:
Experiment in all cases: cell-based or functional assay
[1] = target: HIV Env of isolate CNE31 (HIV)
[2] = target: Env of HIV isolate CNE20 (clade BC) (HIV)
[3] = target: Env of HIV isolate NKU3006.ec1 (clade D) (HIV)
[4] = target: Env of HIV isolate CNE5 (clade AE) (HIV)
[5] = target: Env of HIV isolate CH181.12 (clade BC) (HIV)
[6] = target: Env of HIV isolate MW965.26 (clade C) (HIV)
[7] = target: Env of HIV isolate QH209.14M.A2 (clade A) (HIV)
[8] = target: Env of HIV isolate R2184.c4 (clade AE) (HIV)
[9] = target: Env of HIV isolate 288.38 (clade C) (HIV)
[10] = target: HIV Env of isolate 25925-2.22 (HIV)
[11] = target: Env of HIV isolate 928-28 (clade AG) (HIV)
[12] = target: Env of HIV isolate CH038.12 (clade BC) (HIV)
[13] = target: Env of HIV isolate CH070.1 (clade BC) (HIV)
[14] = target: Env of HIV isolate ZM135.10a (clade C) (HIV)
[15] = target: HIV Env of isolate CAP244.D3 (HIV)
[16] = target: Env of HIV isolate Q769.h5 (clade A) (HIV)
[17] = target: Env of HIV isolate T266-60 (clade AG) (HIV)
[18] = target: Env of HIV isolate CNE30 (clade C in Table 7) (HIV)
[19] = target: HIV Env of isolate ZM55.28a (HIV)
[20] = target: HIV Env of isolate ZM176.66 (HIV)
[21] = target: Env of HIV isolate T280-5 (clade AG) (HIV)
[22] = target: Env of HIV isolate BJOX002000.03.2 (clade BC) (HIV)
[23] = target: HIV Env of isolate 3168.v4.c10 (HIV)
[24] = target: Env of HIV isolate TZA125.17 (clade C) (HIV)
[25] = target: Env of HIV isolate MB201.A1 (clade A) (HIV)
[26] = target: Env of HIV isolate QH0515.01 (clade B) (HIV)
[27] = target: Env of HIV isolate CAP244.D3 (clade C) (HIV)
[28] = target: HIV Env of isolate 6785.v5.c14 (HIV)
[29] = target: Env of HIV isolate 6322.v4.c1 (clade C) (HIV)
[30] = target: HIV Env of isolate 0013095-2.11 (HIV)
[31] = target: Env of HIV isolate Q842.d12 (clade A) (HIV)
[32] = target: Env of HIV isolate 6785.v5.c14 (clade C) (HIV)
[33] = target: HIV Env of isolate 3337.v2.c6 (HIV)
[34] = target: HIV Env of isolate 6838.v1.c35 (HIV)
[35] = target: Env of HIV isolate CNE53 (clade C in Table 7) (HIV)
[36] = target: Env of HIV isolate 246-F3.C10.2 (clade AC) (HIV)
[37] = target: HIV Env of isolate 3817.v2.c59 (HIV)
[38] = target: HIV Env of isolate DU123.06 (HIV)
[39] = target: HIV Env of isolate A03349M1.vrc4a (HIV)
[40] = target: Env of HIV isolate Q168.a2 (clade AD) (HIV)
[41] = target: HIV Env of isolate 57128.vrc15 (HIV)
[42] = target: Env of HIV isolate 6535.3 (clade B) (HIV)
[43] = target: Env of HIV isolate T251-18 (clade AG) (HIV)
[44] = target: Env of HIV isolate ZA012.29 (clade C) (HIV)
[45] = target: HIV Env of isolate CNE58 (HIV)
[46] = target: HIV Env of isolate 3016.v5.c45 (HIV)
[47] = target: HIV Env of isolate TZBD.02 (HIV)
[48] = target: Env of HIV isolate X1193.c1 (clade G) (HIV)
[49] = target: Env of HIV isolate 6545.v4.c1 (clade AC) (HIV)

B1: ePGT121.15 (ePGT121.15.H6 VH and ePGT121.15.L1 VL) (antibody, V domains shown)
VH: QMQLQESGPGLVKPGETLSLTCSVSGASISSSYWSWLRETPGKGLEWIGYTHHSGDTNYAPSLKSRVHLGLHPSKNQVSLSLTSVTAADTAVYYCARTLHGRRIYGVVAFNEFFTYFYWEVWGKGTQVTVSS
VL: SDISVAPGETVRISCGGESIGSRAVQWYQHRAGQAPKLIIYNNQDRPPGIPERFSGSPDIDFGTTATLTITNVEAGDEATYYCHIWDSRRPTNWVFGGGTTLTVL
With B1 the IC80, pseudovirus neutralization [1] was 0.147 µg/mL, the IC50, pseudovirus neutralization [2] was 0.003 µg/mL and the IC50, pseudovirus neutralization [3] was > 50 µg/mL. For the same binder, the IC50, pseudovirus neutralization [4] was > 50 µg/mL, the IC50, pseudovirus neutralization [5] was 0.003 µg/mL and the IC50, pseudovirus neutralization [6] was 0.004 µg/mL. The IC50, pseudovirus neutralization [7] was > 50 µg/mL, the IC50, pseudovirus neutralization [8] was > 50 µg/mL and the IC50, pseudovirus neutralization [9] was 0.001 µg/mL. For the same binder, the IC80, pseudovirus neutralization [10] was 0.013 µg/mL, the IC50, pseudovirus neutralization [11] was 0.161 µg/mL and the IC50, pseudovirus neutralization [12] was 0.001 µg/mL. For the same binder, the IC50, pseudovirus neutralization [13] was 0.001 µg/mL, the IC50, pseudovirus neutralization [14] was 0.119 µg/mL and the IC80, pseudovirus neutralization [15] was > 50 µg/mL. The IC50, pseudovirus neutralization [16] was > 50 µg/mL, the IC50, pseudovirus neutralization [17] was 0.006 µg/mL and the IC50, pseudovirus neutralization [18] was 0.008 µg/mL. The IC80, pseudovirus neutralization [19] was 0.029 µg/mL, the IC80, pseudovirus neutralization [20] was 0.31 µg/mL and the IC50, pseudovirus neutralization [21] was 0.004 µg/mL. The IC50, pseudovirus neutralization [22] was 0.003 µg/mL, the IC80, pseudovirus neutralization [23] was 0.075 µg/mL and the IC50, pseudovirus neutralization [24] was 0.07 µg/mL. For the same binder, the IC50, pseudovirus neutralization [25] was 0.004 µg/mL, the IC50, pseudovirus neutralization [26] was 0.014 µg/mL and the IC50, pseudovirus neutralization [27] was > 50 µg/mL. For the same binder, the IC80, pseudovirus neutralization [28] was 0.01 µg/mL, the IC50, pseudovirus neutralization [29] was > 50 µg/mL and the IC80, pseudovirus neutralization [30] was 11.9 µg/mL. It also gave an IC50, pseudovirus neutralization [31] of 0.003 µg/mL, an IC50, pseudovirus neutralization [32] of 0.004 µg/mL and an IC80, pseudovirus neutralization [33] of 2.63 µg/mL. The IC80, pseudovirus neutralization [34] was 1.34 µg/mL, the IC50, pseudovirus neutralization [35] was 0.007 µg/mL and the IC50, pseudovirus neutralization [36] was 11.6 µg/mL. It also gave an IC80, pseudovirus neutralization [37] of 7.22 µg/mL, an IC80, pseudovirus neutralization [38] of 0.008 µg/mL and an IC80, pseudovirus neutralization [39] of 0.019 µg/mL. It also gave an IC50, pseudovirus neutralization [40] of 5.07 µg/mL, an IC80, pseudovirus neutralization [41] of 0.026 µg/mL and an IC50, pseudovirus neutralization [42] of 0.0007 µg/mL. It also gave an IC50, pseudovirus neutralization [43] of 0.056 µg/mL, an IC50, pseudovirus neutralization [44] of 0.004 µg/mL and an IC80, pseudovirus neutralization [45] of 0.075 µg/mL. The IC80, pseudovirus neutralization [46] was > 50 µg/mL, the IC80, pseudovirus neutralization [47] was 0.007 µg/mL and the IC50, pseudovirus neutralization [48] was 0.003 µg/mL. For the same binder, the IC50, pseudovirus neutralization [49] was > 50 µg/mL.

Source: patent publication US20210292396A1
